Like-named read-outs stand apart in the source and are kept apart here.
Experiments:
[1] = target: F protein of hMPV B virus (human metapneumovirus subtype B); assay: cell-based or functional assay
[2] = target: F protein of hMPV A virus (human metapneumovirus subtype A); assay: cell-based or functional assay
[3] = target: F protein of RSV B/Washington virus (respiratory syncytial virus B, …); assay: cell-based or functional assay
[4] = target: unprocessed hMPV PreF G264R/Q434H (human metapneumovirus strain B2); assay: ELISA; Ni-NTA plate coated with Expi293 supernatant containing the His-tagged antigen; antibody titrated; OD450
[5] = target: T1, unprocessed hMPV PreF trimeric antigen (human metapneumovirus strain B2); assay: as above
T1 construct: also called unprocessed hMPV WT PreF trimer; hMPV WT trimer

[6] = target: unprocessed hMPV PreF K138Q (human metapneumovirus strain B2); assay: as above
Q434H = target: T2, Q434H; assay: as above
T2 construct: also called unprocessed hMPV PreF Q434H

[7] = target: unprocessed hMPV PreF G264R (human metapneumovirus strain B2); assay: as above
V231A = target: T3, V231A; assay: as above
T3 construct: also called unprocessed hMPV PreF V231A

[8] = target: unprocessed hMPV PreF V231A/G264R (human metapneumovirus strain B2); assay: as above
MPV-F (Example 7) = target: T4, MPV-F (Example 7) (human metapneumovirus, UniProt Q6WB98 19-489); assay: ELISA on supernatant of cells transiently transfected with the MPV-F construct; antibody titrated; OD450
T4 construct: also called hMPV F monomer

A216Y = target: T5, A216Y; assay: as above
T5 construct: also called MPV-F A216Y

N202A = target: T6, N202A; assay: as above
T6 construct: also called MPV-F N202A

R198A = target: T7, R198A; assay: as above
T7 construct: also called MPV-F R198A

D209Y = target: T8, D209Y; assay: as above
T8 construct: also called MPV-F D209Y

N210A = target: T9, N210A; assay: as above
T9 construct: also called MPV-F N210A

R329A = target: T10, R329A; assay: as above
T10 construct: also called MPV-F R329A

R253A = target: T11, R253A; assay: as above
T11 construct: also called MPV-F R253A

L219Y = target: T12, L219Y; assay: as above
T12 construct: also called MPV-F L219Y

A249Y = target: T13, A249Y; assay: as above
T13 construct: also called MPV-F A249Y

[9] = target: T1, unprocessed hMPV PreF trimeric antigen; assay: ELISA; Ni-NTA plate coated with Expi293 supernatant containing the His-tagged antigen; antibody titrated; OD450; remark: listed apart in the source
K312Q = target: T14, K312Q; assay: as above
T14 construct: also called unprocessed hMPV PreF K312Q

T143K = target: T15, T143K; assay: as above
T15 construct: also called unprocessed hMPV PreF T143K

T61A, S175R, A185D = target: T16, T61A, S175R, A185D; assay: as above
T16 construct: also called unprocessed hMPV PreF T61A/S175R/A185D

N135T G139N Y233N = target: T17, N135T G139N Y233N; assay: as above
T17 construct: also called unprocessed hMPV PreF N135T/G139N/Y233N

D296K = target: T18, D296K; assay: as above
T18 construct: also called unprocessed hMPV PreF D296K

B1: M2D2 (antibody, V domains shown)
VH: QVQLVQSGAEVKKPGASVKVSCKASGYNFDNYYMSWVRQAPGQGLEWLGIIDPSGGRISYAPKFQGRVTLTRDTSTSTVYMELRGLRFEDTALYYCARLEATHEGPWGQGTLVTVSS
VL: QSVLTQPPSASGTPGQRVTISCSGSNSNIGSSTVNWYQQLPGTAPKLLIYSDNHRPSGVPDRFSGSRSGTSASLVISGLHSEDEADYYCGTWDDGLNGPYVFGTGTKVTVL
notes: IgG
[1]
  PRNT IC50: 58.4 ng/mL
[2]
  PRNT IC50: 29.6 ng/mL
[3]
  PRNT IC50: 3.9 ng/mL
[4]
  binding result: binds
[5]
  EC50 (read off the curve): ~4 ng/mL
[6]
  EC50 (read off the curve): ~6 ng/mL
Q434H
  EC50 (read off the curve): ~10 ng/mL
[7]
  binding result: binds
V231A
  EC50 (read off the curve): ~6 ng/mL
[8]
  binding result: binds
MPV-F (Example 7)
  EC50 (read off the curve): ~20 ng/mL
A216Y
  EC50 (read off the curve): ~40 ng/mL
N202A
  EC50 (read off the curve): ~30 ng/mL
R198A
  EC50 (read off the curve): ~20 ng/mL
D209Y
  EC50 (read off the curve): ~40 ng/mL
N210A
  EC50 (read off the curve): ~20 ng/mL
R329A
  EC50 (read off the curve): ~30 ng/mL
R253A
  EC50 (read off the curve): ~40 ng/mL
L219Y
  EC50 (read off the curve): ~50 ng/mL
A249Y
  EC50 (read off the curve): ~50 ng/mL

B2: M2A05 (antibody, V domains shown)
VH: QITLKESGPTLVKPTQTLTLTCTVSGFSLSANSVGVAWFRQPPGKAPEWLGVIYWDDDKRFSPSLKTRLSITKDASTSQVVLRLTNVSPLDTATYYCVRKHYDLLQWGQGAPVTVSS
VL: EIVLTQSPGTLSLSPGEGATLSCRASRSVNSDYIAWYQHKPGLAPRLLIYAASTRATDIPDRFRADVSGTDFTLTIDRLEPDDFAVYYCQQYGSAVWTFGQGTRVEVK
notes: IgG
[1]
  PRNT IC50: 65.7 ng/mL
[2]
  PRNT IC50: > 10000 ng/mL
[9]
  EC50 (read off the curve): ~4 ng/mL
K312Q
  EC50 (read off the curve): ~3 ng/mL
T143K
  EC50 (read off the curve): ~3 ng/mL
T61A, S175R, A185D
  EC50 (read off the curve): ~4 ng/mL
N135T G139N Y233N
  EC50 (read off the curve): ~3 ng/mL
D296K
  EC50 (read off the curve): ~70 ng/mL
